These results are taken from patent US20100216715A1 (Novo Nordisk, published 2010).

The labels stand for the following.
T1: human beta-Klotho (human, UniProt Q86Z14 1-1044)
T1 sequence (looked up): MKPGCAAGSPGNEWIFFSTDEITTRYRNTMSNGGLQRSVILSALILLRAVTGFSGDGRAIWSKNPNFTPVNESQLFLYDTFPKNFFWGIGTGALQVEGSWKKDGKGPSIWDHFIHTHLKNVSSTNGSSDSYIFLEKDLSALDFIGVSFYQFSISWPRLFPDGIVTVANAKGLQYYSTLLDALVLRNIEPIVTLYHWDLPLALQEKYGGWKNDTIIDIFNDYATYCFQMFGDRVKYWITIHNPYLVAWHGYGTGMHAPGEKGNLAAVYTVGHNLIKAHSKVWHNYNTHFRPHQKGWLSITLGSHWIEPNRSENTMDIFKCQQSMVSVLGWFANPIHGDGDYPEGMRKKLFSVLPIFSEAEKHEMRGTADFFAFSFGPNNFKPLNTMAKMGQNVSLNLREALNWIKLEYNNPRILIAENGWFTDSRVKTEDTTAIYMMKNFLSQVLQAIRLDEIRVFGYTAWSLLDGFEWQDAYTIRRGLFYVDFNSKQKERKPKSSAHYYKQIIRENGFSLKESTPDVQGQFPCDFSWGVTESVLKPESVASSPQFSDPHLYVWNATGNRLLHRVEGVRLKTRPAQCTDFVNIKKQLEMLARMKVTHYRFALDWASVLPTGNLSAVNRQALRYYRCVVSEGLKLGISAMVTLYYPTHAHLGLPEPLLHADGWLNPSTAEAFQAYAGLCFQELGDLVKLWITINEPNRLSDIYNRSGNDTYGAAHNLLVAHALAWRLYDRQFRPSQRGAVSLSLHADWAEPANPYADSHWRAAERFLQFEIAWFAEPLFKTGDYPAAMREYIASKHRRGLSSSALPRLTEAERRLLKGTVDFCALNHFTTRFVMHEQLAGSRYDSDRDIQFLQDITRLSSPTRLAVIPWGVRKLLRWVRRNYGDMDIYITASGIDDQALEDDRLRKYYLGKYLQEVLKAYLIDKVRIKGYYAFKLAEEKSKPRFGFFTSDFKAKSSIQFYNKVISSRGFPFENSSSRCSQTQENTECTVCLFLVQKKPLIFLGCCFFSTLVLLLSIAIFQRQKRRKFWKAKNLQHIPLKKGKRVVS

B1: (S71C, N121Q, L166F, S167G, M168L, 169aT, P171L, S172E, Q173A, G174V, Y179F, A180E, S181K) Ala-FGF21 (ligand)
chain: AHPIPDSSPLLQFGGQVRQRYLYTDDAQQTEAHLEIREDGTVGGAADQSPESLLQLKALKPGVIQILGVKTCRFLCQRPDGALYGSLHFDPEACSFRELLLEDGYNVYQSEAHGLPLHLPGQKSPHRDPAPRGPARFLPLPGLPPALPEPPGILAPQPPDVGSSDPFGLVTGLEAVRSPSFEK
B2: (L166F, S167G, M168L, 169aT, P171L, S172E, Q173A, G174V, Y179F, A180E, S181K) Ser-FGF21 (ligand)
chain: B1 chain with A1S, C72S, Q122N
B3: (D24K) Met-FGF21 (ligand)
chain: MHPIPDSSPLLQFGGQVRQRYLYTKDAQQTEAHLEIREDGTVGGAADQSPESLLQLKALKPGVIQILGVKTSRFLCQRPDGALYGSLHFDPEACSFRELLLEDGYNVYQSEAHGLPLHLPGNKSPHRDPAPRGPARFLPLPGLPPALPEPPGILAPQPPDVGSSDPLSMVGPSQGRSPSYAS
B4: (K56R, K59R, K69R, K122R) Met-FGF21 derivative of Example 7 (ligand)
chain: B3 chain with K25D, K57R, K60R, K70R, K123R
modifications: N-alpha-1-[2-(2-{2-[2-(2-{2-[(S)-4-carboxy-4-(17-carboxy-heptadecanoylamino)-butyrylamino]-ethoxy}-ethoxy)-acetylamino]-ethoxy}-ethoxy)-acetyl] on the alpha amino group of the N-terminal Met
B5: S71C Met-FGF21 derivative of Example 5 (ligand)
chain: B3 chain with K25D, S72C
modifications: S-71-[1-(2-{2-[2-(2-{2-[2-(2-{2-[(S)-4-carboxy-4-(19-carboxy-nonadecanoylamino)-butyrylamino]-ethoxy}-ethoxy)-acetylamino]-ethoxy}-ethoxy)-acetylamino]-ethylcarbamoyl}-ethyl)-2,5-dioxo-pyrrolidin-3-yl] on the thiol of Cys71
B6: S71C Met-FGF21 derivative of Examples 6 and 12 (ligand)
chain: B3 chain with K25D, S72C
modifications: S-71-({2-[2-(2-{2-[2-(2-{2-[(S)-4-carboxy-4-(19-carboxy-nonadecanoylamino)-butyrylamino]-ethoxy}-ethoxy)-acetylamino]-ethoxy}-ethoxy)-acetylamino]-ethylcarbamoyl}-methyl) on the thiol of Cys71
B7: (M168S) Ser-FGF21 (ligand)
chain: B3 chain with M1S, K25D, M169S
B8: S71C Met-FGF21 derivative of Example 14 (ligand)
chain: B3 chain with K25D, S72C
modifications: S-71-({2-[2-(2-{2-[2-(2-{2-[(S)-4-carboxy-4-(17-carboxy-heptadecanoylamino)-butyrylamino]-ethoxy}-ethoxy)-acetylamino]-ethoxy}-ethoxy)-acetylamino]-ethylcarbamoyl}-methyl) on the thiol of Cys71
B9: A26E Met-FGF21 (ligand)
chain: B3 chain with K25D, A27E
B10: S71C Met-FGF21 derivative of Example 13 (ligand)
chain: B3 chain with K25D, S72C
modifications: S-71-[1-(2-{2-[2-(2-{2-[2-(2-{2-[(S)-4-carboxy-4-(17-carboxy-heptadecanoylamino)-butyrylamino]-ethoxy}-ethoxy)-acetylamino]-ethoxy}-ethoxy)-acetylamino]-ethylcarbamoyl}-ethyl)-2,5-dioxo-pyrrolidin-3-yl] on the thiol of Cys71
B11: (Q28R, A31 E) Met-FGF21 (ligand)
chain: B3 chain with K25D, Q29R, A32E
B12: Q27E Met-FGF21 (ligand)
chain: B3 chain with K25D, Q28E
B13: S71C Met-FGF21 (ligand)
chain: B3 chain with K25D, S72C
B14: (des N121) Met-FGF21 (ligand)
chain: MHPIPDSSPLLQFGGQVRQRYLYTDDAQQTEAHLEIREDGTVGGAADQSPESLLQLKALKPGVIQILGVKTSRFLCQRPDGALYGSLHFDPEACSFRELLLEDGYNVYQSEAHGLPLHLPGKSPHRDPAPRGPARFLPLPGLPPALPEPPGILAPQPPDVGSSDPLSMVGPSQGRSPSYAS

Positions count from the first letter of the chain named. Names may count otherwise.

This test concerns the target T1, human beta-Klotho. The test is described as follows: cell-based or functional assay.
For B1, the “pERK-HEK293-Beta-klotho without HSA [EC50 (nM)] Median Value” turned out to be 2 nM.
Then B2, with 1 nM; and B3, with 6.7 nM; and B4, with 1.4 nM.
The figure for B5 is 1.1 nM; for B6 it is 1.5 nM.
Then B7, with 100 nM; and B8, with 2.9 nM; and B9, with 4.7 nM.
With B10, the “pERK-HEK293-Beta-klotho without HSA [EC50 (nM)] Median Value” was determined as 4.8 nM.
The figure for B11 is 1 nM; for B12 it is 2.2 nM.
Then B13, with 3 nM; and B14, with 1 nM.
